In paper PMC9358775 (Nature structural & molecular biology, 2022):
Values belong to the binder of their own block, whether it stands above or below them.

Assays:
[1] = biological target: F-actin (skeletal muscle actin, polymerised) ( (rabbit or chicken skeletal …, UniProt P68135 1-377)); assay: fluorescence polarisation
[2] = biological target: T1, actin-binding domain 1 of human plastin 2 (human, UniProt P13796 120-375); assay: fluorescence polarisation
T1 sequence (looked up): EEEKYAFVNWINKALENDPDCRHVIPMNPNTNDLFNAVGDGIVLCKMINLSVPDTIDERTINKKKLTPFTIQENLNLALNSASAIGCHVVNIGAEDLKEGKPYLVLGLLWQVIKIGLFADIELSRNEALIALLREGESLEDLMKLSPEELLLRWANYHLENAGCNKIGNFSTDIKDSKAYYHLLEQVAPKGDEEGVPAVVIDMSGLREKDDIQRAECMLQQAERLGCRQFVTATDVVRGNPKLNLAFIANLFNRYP

Kd [1]: ~4 nM
B1: actin-binding domain 2 of human plastin 2, unlabeled (domain or fragment)
chain: TREERTFRNWMNSLGVNPRVNHLYSDLSDALVIFQLYEKIKVPVDWNRVNKPPYPKLGGNMKKLENCNYAVELGKNQAKFSLVGIGGQDLNEGNRTLTLALIWQLMRRYTLNILEEIGGGQKVNDDIIVNWVNETLREAKKSSSISSFKDPKISTSLPVLDLIDAIQPGSINYDLLKTENLNDDEKLNNAKYAISMARKIGARVYALPEDLVEVNPKMVMTVFACLMGKGMKRV

Kd [2]: 11.4 nM
B2: fluorescein-maleimide-labeled actin-binding domain 2 of human plastin 2 (domain or fragment, UniProt P13796 394-627, looked up)
chain: B1 chain
modifications: labeled with fluorescein-5-maleimide (FM); labeled residue not stated
